How the values were obtained:
Test in all cases: SPR
[1] = biological target: Glu-Gly-Arg-chloromethylketone active site-blocked activated protein C (EGR-APC)
[2] = biological target: Full-length wild-type recombinant factor V (FV-WT) (human, UniProt P12259 29-2224)
[3] = biological target: Full-length recombinant factor V R506Q (FV Leiden) (human, UniProt P12259 29-2224, R506Q)
[4] = biological target: Full-length recombinant factor V W1920R (FV Nara) (human, UniProt P12259 29-2224, W1920R)
Full-length recombinant factor V W1920R (FV Nara), sequence (P12259 29-2224 W1948R): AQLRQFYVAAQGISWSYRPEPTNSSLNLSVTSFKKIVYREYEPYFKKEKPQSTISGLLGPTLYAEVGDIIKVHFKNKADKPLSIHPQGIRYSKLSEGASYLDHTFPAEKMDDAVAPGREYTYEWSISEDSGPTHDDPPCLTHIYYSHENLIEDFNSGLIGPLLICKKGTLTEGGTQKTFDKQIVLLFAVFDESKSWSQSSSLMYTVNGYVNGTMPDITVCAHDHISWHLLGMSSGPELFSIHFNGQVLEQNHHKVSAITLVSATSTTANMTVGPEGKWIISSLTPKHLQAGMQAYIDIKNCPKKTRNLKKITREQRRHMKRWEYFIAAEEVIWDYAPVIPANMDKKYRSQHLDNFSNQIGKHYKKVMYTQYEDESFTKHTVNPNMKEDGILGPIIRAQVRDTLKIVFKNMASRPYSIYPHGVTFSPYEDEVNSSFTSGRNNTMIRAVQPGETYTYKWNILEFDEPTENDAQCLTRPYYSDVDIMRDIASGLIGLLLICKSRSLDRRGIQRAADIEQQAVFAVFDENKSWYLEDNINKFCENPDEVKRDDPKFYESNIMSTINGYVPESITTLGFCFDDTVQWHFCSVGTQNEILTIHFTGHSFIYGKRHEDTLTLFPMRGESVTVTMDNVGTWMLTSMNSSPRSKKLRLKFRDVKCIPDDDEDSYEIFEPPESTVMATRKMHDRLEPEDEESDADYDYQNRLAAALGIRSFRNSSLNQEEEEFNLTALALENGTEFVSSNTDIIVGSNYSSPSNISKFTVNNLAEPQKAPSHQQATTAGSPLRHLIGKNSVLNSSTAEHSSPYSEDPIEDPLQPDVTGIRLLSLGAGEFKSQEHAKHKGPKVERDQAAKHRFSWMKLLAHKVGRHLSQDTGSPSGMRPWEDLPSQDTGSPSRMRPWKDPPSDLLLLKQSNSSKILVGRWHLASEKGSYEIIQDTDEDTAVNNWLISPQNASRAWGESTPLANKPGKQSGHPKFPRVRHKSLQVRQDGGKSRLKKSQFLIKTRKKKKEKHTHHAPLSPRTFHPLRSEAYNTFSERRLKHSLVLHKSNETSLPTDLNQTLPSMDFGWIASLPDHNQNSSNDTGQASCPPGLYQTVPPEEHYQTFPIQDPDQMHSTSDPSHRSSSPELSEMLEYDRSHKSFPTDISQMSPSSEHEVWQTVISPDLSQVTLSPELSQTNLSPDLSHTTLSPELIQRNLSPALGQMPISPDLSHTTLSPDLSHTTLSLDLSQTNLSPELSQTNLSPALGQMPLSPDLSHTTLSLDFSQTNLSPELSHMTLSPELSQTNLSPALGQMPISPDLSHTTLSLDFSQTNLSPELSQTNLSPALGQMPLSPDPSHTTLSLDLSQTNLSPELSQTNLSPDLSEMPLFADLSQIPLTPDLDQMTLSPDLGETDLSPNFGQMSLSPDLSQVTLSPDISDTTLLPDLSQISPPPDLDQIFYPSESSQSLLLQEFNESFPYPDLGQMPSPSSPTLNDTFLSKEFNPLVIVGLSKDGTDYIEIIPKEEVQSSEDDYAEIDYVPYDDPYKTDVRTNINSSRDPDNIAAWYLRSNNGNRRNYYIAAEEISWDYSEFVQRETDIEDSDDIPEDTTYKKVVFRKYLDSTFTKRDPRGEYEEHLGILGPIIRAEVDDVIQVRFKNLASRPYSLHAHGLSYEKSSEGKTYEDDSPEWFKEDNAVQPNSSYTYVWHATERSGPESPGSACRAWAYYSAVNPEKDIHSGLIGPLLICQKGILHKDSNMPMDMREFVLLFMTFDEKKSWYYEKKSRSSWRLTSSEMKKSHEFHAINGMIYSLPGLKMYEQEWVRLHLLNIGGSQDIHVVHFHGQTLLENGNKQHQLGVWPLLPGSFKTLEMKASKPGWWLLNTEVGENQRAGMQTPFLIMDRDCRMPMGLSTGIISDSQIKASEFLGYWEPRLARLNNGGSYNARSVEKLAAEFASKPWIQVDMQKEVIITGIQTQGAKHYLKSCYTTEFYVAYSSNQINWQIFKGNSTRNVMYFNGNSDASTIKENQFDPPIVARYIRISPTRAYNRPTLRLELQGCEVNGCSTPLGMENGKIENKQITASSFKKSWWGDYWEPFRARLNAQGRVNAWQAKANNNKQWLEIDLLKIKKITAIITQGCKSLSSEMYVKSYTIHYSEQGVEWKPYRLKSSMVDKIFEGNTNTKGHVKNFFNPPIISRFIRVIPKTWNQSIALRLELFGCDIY

Full-length recombinant factor V R506Q (FV Leiden), sequence (P12259 29-2224 R534Q): as the sequence (P12259 29-2224 W1948R) above, with R506Q, R1920W counted along it
Full-length wild-type recombinant factor V (FV-WT), sequence (P12259 29-2224): as the sequence (P12259 29-2224 W1948R) above, with R1920W counted along it

Molecule | Kd [1] [nM] | koff [1] [s⁻¹] | kon [1] [M⁻¹ s⁻¹] | Kd [2] [nM] | koff [2] [s⁻¹] | kon [2] [M⁻¹ s⁻¹] | Kd [3] [nM] | koff [3] [s⁻¹] | kon [3] [M⁻¹ s⁻¹] | Kd [4] [nM] | koff [4] [s⁻¹] | kon [4] [M⁻¹ s⁻¹]
Full-length recombinant factor V A2086D (FV Besançon) (from UniProt P12259 29-2224) (natural protein) | 20.3 | 0.00268 | 132000 |  |  |  |  |  |  |  |  | 
Full-length recombinant factor V R506Q (FV Leiden) (from UniProt P12259 29-2224) (natural protein) | 19.1 | 0.00457 | 239000 |  |  |  |  |  |  |  |  | 
Full-length recombinant factor V W1920R (FV Nara) (from UniProt P12259 29-2224) (natural protein) | 12.8 | 0.00433 | 338000 |  |  |  |  |  |  |  |  | 
Full-length wild-type recombinant factor V (FV-WT) (from UniProt P12259 29-2224) (natural protein) | 10.7 | 0.00359 | 337000 |  |  |  |  |  |  |  |  | 
Protein S (natural protein, UniProt P07225 42-676, looked up) ANSLLEETKQGNLERECIEELCNKEEAREVFENDPETDYFYPKYLVCLRSFQTGLFTAARQSTNAYPDLRSCVNAIPDQCSPLPCNEDGYMSCKDGKASFTCTCKPGWQGEKCEFDINECKDPSNINGGCSQICDNTPGSYHCSCKNGFVMLSNKKDCKDVDECSLKPSICGTAVCKNIPGDFECECPEGYRYNLKSKSCEDIDECSENMCAQLCVNYPGGYTCYCDGKKGFKLAQDQKSCEVVSVCLPLNLDTKYELLYLAEQFAGVVLYLKFRLPEISRFSAEFDFRTYDSEGVILYAESIDHSAWLLIALRGGKIEVQLKNEHTSKITTGGDVINNGLWNMVSVEELEHSISIKIAKEAVMDINKPGPLFKPENGLLETKVYFAGFPRKVESELIKPINPRLDGCIRSWNLMKQGASGIKEIIQEKQNKHCLVTVEKGSYYPGSGIAQFHIDYNNVSSAEGWHVNVTLNIRPSTGTGVMLALVSGNNTVPFAVSLVDSTSEKSQDILLSVENTVIYRIQALSLCSDQQSHLEFRVNRNNLELSTPLKIETISHEDLQRQLAVLDKAMKAKVATYLGGLPDVPFSATPVNAFYNGCMEVNINGVQLDLDEAISKHNDIRAHSCPSVWKKTKNS |  |  |  | 7.56 | 0.00393 | 520000 | 5.26 | 0.00374 | 711000 | 26.2 | 0.00382 | 145000
